Legend:
[1] = target: GluA2-γ2_(FRET) (GluA2_(FRET) fused through a GGS linker to full-length mouse TARPγ2) (rat | mouse) (UniProt O88602); test: FRET or BRET; single-molecule FRET between Alexa-555 and Alexa-647 on Cys467 of two subunits; receptors from detergent-solubilised HEK293T cells held on the slide by antibody (in situ immunoprecipitation); 1 mM Glu + 100 µM GYKI-52466
[2] = target: GluA2-γ2_(FRET) (GluA2_(FRET) fused through a GGS linker to full-length mouse TARPγ2) (rat | mouse) (UniProt O88602); test: FRET or BRET; single-molecule FRET between Alexa-555 and Alexa-647 on Cys467 of two subunits; receptors from detergent-solubilised HEK293T cells held on the slide by antibody (in situ immunoprecipitation); 1 mM Glu + 100 µM CTZ

FRET efficiency (highest-occurring state, with GYKI-52466) [1]: 0.82 | FRET efficiency (highest-occurring state, with CTZ) [2]: 0.93
Substance: GluA2-γ2_(FRET) (GluA2_(FRET) fused through a GGS linker to full-length mouse TARPγ2) (from UniProt O88602 1-323) (receptor)
